The results in this text go back to paper PMC7442955, “Biochemical and functional characterization of a meiosis-specific Pch2/ORC AAA+ assembly” (Life Science Alliance, 2020).

Usually stoichiometry N stands for a count of units in the complex or per binding partner.

The labels stand for the following.
B3: His–MBP–Pch2 (natural protein, budding yeast, UniProt P38126 1-564, looked up)
chain: MSYIVDLQVRGSSLRVIKCMFREDEQISSLHSGSDSKQNSNKKLGEFLNLLKAVVKRKLESFPKDRLKTSIITGQELMREGQGSIEIKDPPTEAQQHLIRSLAKVLLHQFSSINGKVNTVNEGQDNLFLSLFVKKISIEQQSTSHVSIKLNFHEKINLGQHIDSILDSEETNESDTYHMGSVDEFIIYPFCCLEEQDELKNGSILSTEFDKIDLELDEDDGFEGETLNNCINSVGNFDIPLSKQTLNLVNISYLPGTTFEGQWESLYFGNNIKERLYSYATISLKIARFKQTGDSNQEDITTLITNNKLLLVHGPPGTGKTTLCKALCQKLSVRREFSDGSDTIDTNYKGIIIELSCARIFSKWFGESSKNISIVFKDIEELLKVNEGRGIFICLLIDEVEAIASSRTNLSSRNESTDGIRVVNTLLTQLDRLKKYHNFLALATSNLLDSLDDAFVDRADGVFYVGNPTAEGILHILKVCIEEMITSGIILFHARSTGVKFFNKYQDILRKIAIKCSTVDISGRTIRKLPLMCLSEYFRTFPVDDDEFVLALAMSARKLSAARK
notes: Pch2, budding yeast; from codon-optimized cDNA in a pLIB–His–MBP vector; Apparent hexamer by SEC, with a minor fraction that appears monomeric; also called purified Pch2; full-length Pch2; source: Tnao38 insect cells (baculovirus), purified (TALON, amylose, SEC); not shown: His, N-terminal, kept; MBP, N-terminal, kept

Data set [1] has as its target B3. Kind of data set: cross-linking; XL-MS: 0.75 μM His–MBP–Pch2 with 1.5 μM His–ORC, 30 mM HEPES pH 7.5, 150 mM NaCl, 2 mM TCEP, 90 min at 4°C; 3 mM DSBU, 25°C, 1 h; MeroX, 2% FDR. The settings on record: both partners purified.
Data set [2] addresses T1, His–ORC (His–Orc1, Orc2-6) purified from insect cells (budding yeast, UniProt P54784 1-914; P32833 1-620; P54790 1-616; P54791 1-529; P50874 1-479; P38826 …, a fraction of Orc6 phosphorylated (double band, collapsed by λ-phosphatase); sites not stated).
T1 construct: Orc1, budding yeast; Orc2, budding yeast; Orc3, budding yeast; Orc4, budding yeast; Orc5, budding yeast; Orc6, budding yeast; Total size about 414 kD as printed; also called His–Orc1-6; origin recognition complex; source: Tnao38 insect cells coinfected with two baculoviruses, purified (His-tag resin, SEC); copies: + + + + +
Kind of data set: pull-down; His–MBP–Pch2 (1 μM as hexamer) or fragments (6 μM of 2-144) on amylose beads, 1 μM ORC added, 90 min on ice; 30 mM HEPES pH 7.5, 150 mM NaCl, 10 mM imidazole, 0.1% Tween-20, 10 mM MgCl2; Coomassie staining or Western blot (α-MBP, α-ORC). The conditions noted are these: both partners purified.

In data set [3] the target is T2, dephosphorylated His–ORC (λ-phosphatase treated) (budding yeast, UniProt P54784 1-914; P32833 1-620; P54790 1-616; P54791 1-529; P50874 1-479; P38826 …).
T2 construct: Orc1, budding yeast; as in m16; Orc2, budding yeast; Orc3, budding yeast; Orc4, budding yeast; Orc5, budding yeast; Orc6, budding yeast; as in m16, dephosphorylated (single band); also called dephosphorylated ORC; source: Tnao38 insect cells, purified, then treated with λ-phosphatase at 4°C overnight; copies: + + + + +
Described as above. The settings on record: both partners purified.

Data set [4] has as its target T3, 6xHis–Hop1 (budding yeast, UniProt P20050 1-605).
T3 construct: Hop1, HORMA domain protein, substrate of Pch2; source: E. coli BL21 RIPL, purified (TALON, heparin, SEC); not shown: 6xHis, N-terminal, kept
T3 sequence (looked up): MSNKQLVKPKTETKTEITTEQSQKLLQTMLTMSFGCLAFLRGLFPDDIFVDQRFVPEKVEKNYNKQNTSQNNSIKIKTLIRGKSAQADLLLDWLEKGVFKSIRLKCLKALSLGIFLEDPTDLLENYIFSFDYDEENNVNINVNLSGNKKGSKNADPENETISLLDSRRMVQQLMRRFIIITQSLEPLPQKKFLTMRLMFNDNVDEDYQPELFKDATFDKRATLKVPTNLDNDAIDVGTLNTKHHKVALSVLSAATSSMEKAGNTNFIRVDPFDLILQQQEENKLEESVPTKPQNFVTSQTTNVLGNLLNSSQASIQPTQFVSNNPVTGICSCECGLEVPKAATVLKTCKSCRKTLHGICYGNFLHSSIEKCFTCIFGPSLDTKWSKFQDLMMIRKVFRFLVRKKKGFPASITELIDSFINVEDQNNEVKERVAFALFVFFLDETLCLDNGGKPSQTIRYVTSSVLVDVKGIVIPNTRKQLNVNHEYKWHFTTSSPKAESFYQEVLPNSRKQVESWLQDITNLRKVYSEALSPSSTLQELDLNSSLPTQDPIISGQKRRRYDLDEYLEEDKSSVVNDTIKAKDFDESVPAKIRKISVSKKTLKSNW
Nature of the data set: pull-down; His–MBP–Pch2 (1 μM, as hexamer) on amylose beads, 6 μM Hop1 added, 90 min on ice; 50 mM Tris pH 7.5, 50 mM NaCl, 10 mM imidazole, 0.1% Tween-20, 1 mM MgCl2; with or without 200 μM ATP or ATPγS; Coomassie staining. The settings on record: both partners purified.

The target in data set [5] is T4, His–Orc1 (subunit of the insect cell–purified ORC) (budding yeast, UniProt P54784 1-914).
T4 construct: Orc1, budding yeast; Stood in the assays as a subunit of m16; source: Tnao38 insect cells, co-expressed with Orc2-6, purified as part of His–ORC
T4 sequence (looked up): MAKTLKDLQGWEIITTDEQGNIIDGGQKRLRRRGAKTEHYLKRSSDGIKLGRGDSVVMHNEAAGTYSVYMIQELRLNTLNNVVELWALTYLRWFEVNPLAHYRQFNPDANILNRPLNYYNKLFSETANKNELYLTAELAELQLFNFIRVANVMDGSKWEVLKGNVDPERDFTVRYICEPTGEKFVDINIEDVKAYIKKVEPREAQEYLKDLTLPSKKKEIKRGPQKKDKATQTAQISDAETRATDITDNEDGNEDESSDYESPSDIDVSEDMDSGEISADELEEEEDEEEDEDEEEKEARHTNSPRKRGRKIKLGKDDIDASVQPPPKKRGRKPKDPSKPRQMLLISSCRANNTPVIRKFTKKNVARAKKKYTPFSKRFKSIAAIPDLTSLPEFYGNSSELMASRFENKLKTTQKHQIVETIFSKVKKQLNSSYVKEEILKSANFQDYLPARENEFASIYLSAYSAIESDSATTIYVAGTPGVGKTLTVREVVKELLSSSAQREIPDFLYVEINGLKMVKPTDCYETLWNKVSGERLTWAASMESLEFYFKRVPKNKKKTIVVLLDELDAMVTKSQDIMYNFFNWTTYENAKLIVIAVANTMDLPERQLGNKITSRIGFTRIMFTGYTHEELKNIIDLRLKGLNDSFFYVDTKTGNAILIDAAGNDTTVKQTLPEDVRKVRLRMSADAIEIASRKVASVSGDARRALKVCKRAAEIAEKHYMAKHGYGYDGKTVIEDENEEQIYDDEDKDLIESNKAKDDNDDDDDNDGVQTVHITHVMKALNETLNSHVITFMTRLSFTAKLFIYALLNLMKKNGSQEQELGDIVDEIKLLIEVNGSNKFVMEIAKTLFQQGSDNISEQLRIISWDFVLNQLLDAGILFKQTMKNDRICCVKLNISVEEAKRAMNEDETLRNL
Kind of data set: cross-linking; XL-MS: 0.75 μM His–MBP–Pch2 with 1.5 μM His–ORC, 30 mM HEPES pH 7.5, 150 mM NaCl, 2 mM TCEP, 90 min at 4°C; 3 mM DSBU, 25°C, 1 h; MeroX, 2% FDR. The conditions noted are these: both partners purified.

Data set [6] concerns the target T5, ORC (Orc1-6, with Orc1 carrying a CBP tag) purified from budding yeast (budding yeast, UniProt P54784 1-914; P32833 1-620; P54790 1-616; P54791 1-529; P50874 1-479; P38826 …).
T5 construct: Orc1, budding yeast; Orc2, budding yeast; Orc3, budding yeast; Orc4, budding yeast; Orc5, budding yeast; Orc6, budding yeast; also called budding yeast ORC (CBP–Orc1); budding yeast–purified ORC; source: purified from α-factor–arrested vegetative budding yeast cells (yGV3358), concentrated on calmodulin beads; copies: + + + + +
Kind of data set: pull-down; ORC from budding yeast bound to calmodulin beads, His–MBP–Pch2 added for 1 h on ice; 30 mM HEPES pH 7.5, 200 mM NaCl, 2 mM CaCl2; with or without MgCl2 and ADP, ATP or ATP analogs; Coomassie staining. The conditions noted are these: both partners purified.

Data set [7] concerns the molecule itself. Nature of the data set: SEC; single purified proteins: His–MBP–Pch2 (2 μM), His–MBP–Pch2-243-564 (2 μM), His–MBP–Pch2-2-144 (6 μM; Superdex 200 5/150 GL); 30 mM HEPES pH 7.5, 150 mM NaCl, 3% glycerol, 2 mM TCEP, 1 mM MgCl2. (Size exclusion chromatography separates by hydrodynamic size, large species first.)

T1 sequence (P32833 whole entry, chain 2 of 4): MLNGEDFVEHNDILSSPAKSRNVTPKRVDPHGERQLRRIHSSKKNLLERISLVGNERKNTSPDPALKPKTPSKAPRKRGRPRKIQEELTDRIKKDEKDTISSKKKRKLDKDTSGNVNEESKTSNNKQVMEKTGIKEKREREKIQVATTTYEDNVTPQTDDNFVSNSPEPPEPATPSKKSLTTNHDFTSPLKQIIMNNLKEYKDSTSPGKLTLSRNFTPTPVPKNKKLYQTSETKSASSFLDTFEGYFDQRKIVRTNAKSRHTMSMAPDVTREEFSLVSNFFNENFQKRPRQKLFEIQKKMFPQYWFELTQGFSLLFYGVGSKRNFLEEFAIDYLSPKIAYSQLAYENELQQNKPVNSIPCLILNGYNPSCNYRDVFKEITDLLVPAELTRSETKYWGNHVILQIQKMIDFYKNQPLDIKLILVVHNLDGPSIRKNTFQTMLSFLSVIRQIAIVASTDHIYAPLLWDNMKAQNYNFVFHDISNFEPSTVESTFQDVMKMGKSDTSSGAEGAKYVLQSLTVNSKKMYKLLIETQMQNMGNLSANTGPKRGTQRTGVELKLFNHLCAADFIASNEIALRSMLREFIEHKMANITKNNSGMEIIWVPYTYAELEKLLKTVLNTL
T1 sequence (P54790 whole entry, chain 3 of 4): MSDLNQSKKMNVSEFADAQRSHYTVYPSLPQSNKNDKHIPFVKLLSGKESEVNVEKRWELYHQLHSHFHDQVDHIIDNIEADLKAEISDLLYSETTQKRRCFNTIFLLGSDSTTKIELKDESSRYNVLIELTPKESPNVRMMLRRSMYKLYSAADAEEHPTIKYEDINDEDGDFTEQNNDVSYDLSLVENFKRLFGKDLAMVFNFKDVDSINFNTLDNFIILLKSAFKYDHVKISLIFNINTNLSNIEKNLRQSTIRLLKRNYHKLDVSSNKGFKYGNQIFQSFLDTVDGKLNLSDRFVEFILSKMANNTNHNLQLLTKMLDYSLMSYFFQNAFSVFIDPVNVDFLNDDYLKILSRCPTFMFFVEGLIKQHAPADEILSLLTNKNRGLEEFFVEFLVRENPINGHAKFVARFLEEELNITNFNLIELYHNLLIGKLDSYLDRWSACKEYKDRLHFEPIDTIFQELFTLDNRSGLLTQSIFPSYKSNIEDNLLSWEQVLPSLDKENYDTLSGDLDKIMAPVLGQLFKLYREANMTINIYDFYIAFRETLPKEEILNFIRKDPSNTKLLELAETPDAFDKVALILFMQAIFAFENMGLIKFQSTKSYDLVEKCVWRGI
T1 sequence (P54791 whole entry, chain 4 of 4): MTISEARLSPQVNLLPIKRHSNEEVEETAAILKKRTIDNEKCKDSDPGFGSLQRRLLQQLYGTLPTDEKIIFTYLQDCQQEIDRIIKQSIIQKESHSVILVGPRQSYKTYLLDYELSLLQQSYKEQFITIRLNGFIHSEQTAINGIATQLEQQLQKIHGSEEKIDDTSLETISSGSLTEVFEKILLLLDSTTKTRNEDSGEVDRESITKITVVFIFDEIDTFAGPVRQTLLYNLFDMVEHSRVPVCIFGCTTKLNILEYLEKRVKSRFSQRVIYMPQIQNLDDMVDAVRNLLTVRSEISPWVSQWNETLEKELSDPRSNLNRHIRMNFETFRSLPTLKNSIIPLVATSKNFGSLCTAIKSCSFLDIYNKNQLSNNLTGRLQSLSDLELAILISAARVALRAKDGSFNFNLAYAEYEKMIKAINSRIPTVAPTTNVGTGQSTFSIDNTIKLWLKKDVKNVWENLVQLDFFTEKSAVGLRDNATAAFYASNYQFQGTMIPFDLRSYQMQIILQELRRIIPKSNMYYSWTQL
T1 sequence (P38826 whole entry, chain 6 of 4): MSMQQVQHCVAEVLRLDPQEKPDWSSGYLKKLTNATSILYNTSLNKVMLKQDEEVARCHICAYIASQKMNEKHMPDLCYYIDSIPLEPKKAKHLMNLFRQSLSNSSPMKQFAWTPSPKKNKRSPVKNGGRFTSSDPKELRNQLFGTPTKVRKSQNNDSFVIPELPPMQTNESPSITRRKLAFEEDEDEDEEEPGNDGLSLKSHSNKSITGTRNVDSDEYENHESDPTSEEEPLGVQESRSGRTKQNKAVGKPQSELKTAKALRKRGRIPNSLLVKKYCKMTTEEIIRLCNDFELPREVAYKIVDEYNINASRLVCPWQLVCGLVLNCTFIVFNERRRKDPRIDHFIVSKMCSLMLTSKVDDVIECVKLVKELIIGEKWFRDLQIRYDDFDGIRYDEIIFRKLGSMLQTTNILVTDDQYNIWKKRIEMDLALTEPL
T2 sequence (P32833 whole entry, chain 2 of 4): as the sequence (P32833 whole entry, chain 2 of 4) above
T2 sequence (P54790 whole entry, chain 3 of 4): as the sequence (P54790 whole entry, chain 3 of 4) above
T2 sequence (P54791 whole entry, chain 4 of 4): as the sequence (P54791 whole entry, chain 4 of 4) above
T2 sequence (P38826 whole entry, chain 6 of 4): as the sequence (P38826 whole entry, chain 6 of 4) above
T5 sequence (P32833 whole entry, chain 2 of 4): as the sequence (P32833 whole entry, chain 2 of 4) above
T5 sequence (P54790 whole entry, chain 3 of 4): as the sequence (P54790 whole entry, chain 3 of 4) above
T5 sequence (P54791 whole entry, chain 4 of 4): as the sequence (P54791 whole entry, chain 4 of 4) above
T5 sequence (P38826 whole entry, chain 6 of 4): as the sequence (P38826 whole entry, chain 6 of 4) above

B1: Orc5 (subunit of the insect cell–purified ORC) (natural protein, budding yeast, UniProt P50874 1-479, looked up)
chain: MNVTTPEVAFREYQTNCLASYISADPDITPSNLILQGYSGTGKTYTLKKYFNANPNLHAVWLEPVELVSWKPLLQAIARTVQYKLKTLYPNIPTTDYDPLQVEEPFLLVKTLHNIFVQYESLQEKTCLFLILDGFDSLQDLDAALFNKYIKLNELLPKDSKINIKFIYTMLETSFLQRYSTHCIPTVMFPRYNVDEVSTILVMSRCGELMEDSCLRKRIIEEQITDCTDDQFQNVAANFIHLIVQAFHSYTGNDIFALNDLIDFKWPKYVSRITKENIFEPLALYKSAIKLFLSTDDNLSENGQGESAITTNRDDLENSQTYDLSIISKYLLIASYICSYLEPRYDASIFSRKTRIIQGRAAYGRRKKKEVNPRYLQPSLFAIERLLAIFQAIFPIQGKAESGSLSALREESLMKANIEVFQNLSELHTLKLIATTMNKNIDYLSPKVRWKVNVPWEIIKEISESVHFNISDYFSDIHE
notes: Orc5, budding yeast; Stood in the assays as a subunit of m16; source: Tnao38 insect cells, co-expressed, purified as part of His–ORC
Turning to B1, the binding result in data set [1] was “binds”.

B2: His–MBP–Pch2-2-144 (domain or fragment, budding yeast, UniProt P38126 2-144, looked up)
chain: SYIVDLQVRGSSLRVIKCMFREDEQISSLHSGSDSKQNSNKKLGEFLNLLKAVVKRKLESFPKDRLKTSIITGQELMREGQGSIEIKDPPTEAQQHLIRSLAKVLLHQFSSINGKVNTVNEGQDNLFLSLFVKKISIEQQSTS
notes: Pch2, budding yeast, part of the NH2-terminal domain; Monomer by SEC; also called minimal NH2-terminal fragment of Pch2; source: Tnao38 insect cells (baculovirus), purified (TALON, amylose, SEC); not shown: His, N-terminal, kept; MBP, N-terminal, kept
Turning to B2, the binding result in data set [2] is reported as “binds”.

With B3, the binding result in data set [2], in data set [3], in data set [4], in data set [5] and in data set [6] was “binds” each time. Moreover, the “stoichiometry N” value in data set [7] came out at 6.
